For assay [1], the target named is CD19 (UniProt P15391). Nature of the assay: cell-based or functional assay.
Assay [2] has as its target human serum immunoglobulin (IgG) (human). The assay can be described thus: flow cytometry of cFcR-transduced human T cells incubated with human serum IgG, co-stained for CD16 and IgG. For orientation: In flow cytometry, cells or beads pass a laser one at a time.

Sequence of UniProt P15391 (P15391 20-556 limits assumed): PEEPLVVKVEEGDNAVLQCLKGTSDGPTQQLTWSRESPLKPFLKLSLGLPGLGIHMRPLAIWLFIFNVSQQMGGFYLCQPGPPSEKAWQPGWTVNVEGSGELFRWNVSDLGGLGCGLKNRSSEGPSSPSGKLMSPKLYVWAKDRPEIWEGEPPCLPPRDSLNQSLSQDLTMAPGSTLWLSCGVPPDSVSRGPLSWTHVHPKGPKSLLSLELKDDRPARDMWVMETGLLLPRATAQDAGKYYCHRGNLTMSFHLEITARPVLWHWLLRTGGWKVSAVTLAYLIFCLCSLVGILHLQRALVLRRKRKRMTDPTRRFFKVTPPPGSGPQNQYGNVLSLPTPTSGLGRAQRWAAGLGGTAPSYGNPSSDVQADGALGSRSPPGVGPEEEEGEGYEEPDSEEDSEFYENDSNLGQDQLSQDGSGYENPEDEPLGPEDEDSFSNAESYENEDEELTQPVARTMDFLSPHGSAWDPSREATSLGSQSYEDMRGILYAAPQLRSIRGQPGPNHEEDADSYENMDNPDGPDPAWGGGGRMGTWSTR

On to “CD3z-41BB-CD8-CAR19scFv (4G7) chimeric antigen receptor (CAR19) (from UniProt P01732 138-206; Q07011 214-255; P20963 52-164)”, for which, in assay [1], the degranulation assay, CD107a upregulation on TCR+ CAR19+ T cells after 4 hr with CD19+ Daudi turned out to be 53% and the degranulation assay, CD107a upregulation on TCR- CAR19+ T cells after 4 hr with CD19+ Daudi was 57%.

In assay [2], “chimeric FcR (cFcR) (from UniProt P08637 17-208; P01732 138-206; Q07011 214-255; P20963 52-164) (receptor)” showed a percent of cells with CD16 and IgG co-staining of 7.5%.

Source of the values: patent publication US20200087681A1.
